Legend:
Assay in all cases: cryo-EM structure
[1] = target: PltBd2 in the endogenously expressed DiaT holotoxin purified from S. diarizonae (S. diarizonae)
[2] = target: PltBd2 recombinantly expressed in E. coli as part of the PltBd2 homopentameric holotoxin (S. diarizonae)
[3] = target: PltBd1 recombinantly expressed in E. coli as part of a holotoxin (S. diarizonae)

Substance: PltBd1 in the endogenously expressed DiaT holotoxin purified from S. diarizonae (natural protein)
- stoichiometry N (PltBd1 per PltBd2 (3:2)) [1]: 1.5

Substance: PltBd2 recombinantly expressed in E. coli as part of the PltBd2 homopentameric holotoxin (natural protein)
- stoichiometry N [2]: 5

Substance: PltBd1 recombinantly expressed in E. coli as part of a holotoxin (natural protein)
- stoichiometry N [3]: 5

From paper PMC12629460
